Patent US20240342284A1 (ARSENAL BIOSCIENCES, published 2024)
Blank lines part the entries; values can stand above or below the binder they belong to.

Experiments:
[1] = molecular target: T1, human CA9 isoform with 91-96 deletion, expressed on HEK293T cells (human, UniProt Q16790 38-459); experiment: flow cytometry histograms on the 91-96del CA9 HEK293T line, secondary mouse anti human IgG2 stain
T1 construct: also called CA9-91-96del; 91-96del CA9

[2] = molecular target: T2, human CA9 isoform with Q326R SNP, expressed on HEK293T cells (human, UniProt Q16790 38-459); experiment: flow cytometry histograms on the snpQ326R CA9 HEK293T line, secondary mouse anti human IgG2 stain
T2 construct: also called CA9-Q326R; Q326R CA9

[3] = molecular target: T3, human Carbonic Anhydrase IX (CA9) expressed on cells (human, UniProt Q16790 38-459); experiment: flow cytometry histograms on the wt line 293T-LP81-CA9(CL572), secondary mouse anti human IgG2 stain
[4] = molecular target: T3, human Carbonic Anhydrase IX (CA9) …; experiment: flow cytometry on HEK293T-CA9 against parental cells (data not shown)
Experimental: (§1) Binding of recombinant CA9 1-mIgG2a and CA9 2-mIgG2a to CA9 was assessed by cell binding dose curves on parental HEK293T cells and HEK293T-CA9 expressing cell lines. Briefly, HEK293T parental and HEK293T-CA9 engineered cells were first blocked with human Fc blocker for 10 min at room temperature, stained for 30 min on ice with recombinant antibodies in an 8-point serial dilution, and washed 3 times with BD Stain Buffer. Subsequently, cells were stained for 30 min on ice with anti-mouse IgG2a-PE secondary antibody. Cell surface binding was measured on an Attune flow cytometer, with geometric mean fluorescence intensity (gMFI) data analyzed in FlowJo and plotted using GraphPad Prism. The dose-response curves and EC50 value were analyzed and obtained using the nonlinear fit model of (agonist) versus response (three parameters).

recombinant mouse PSMA = molecular target: T4, recombinant mouse PSMA (mouse, UniProt O35409 45-752, limits assumed); experiment: BLI (Octet R8), antibody on anti-mouse capture biosensors, recombinant antigen as analyte
T4 construct: also called mouse homolog of PSMA
Experimental: (§2) The binding affinity of recombinant CA9 antibodies to human CA9 target antigen and cross-reactivity to mouse homologs was measured on the Octet R8. Briefly, recombinant antibody was loaded onto anti-mouse capture (AMC) Octet biosensors. Biosensors were then dipped into different concentrations of recombinant target antigen (analyte) solution, and the rate of protein-protein complex formation (association) measured. Protein-protein dissociation rates were measured when the biosensors were dipped into kinetic buffer alone. The Octet Analysis Studio 13.0 software calculated the response in equilibrium (Req) using the association and dissociation signal. The KD value and other kinetics parameters were determined by the values of Req for each analyte concentration (Table 1).
as §2, with “recombinant” for “recombinant CA9”, “PSMA” for “CA9”, “R8 instrument. […]” for “R8. Briefly, recombinant antibody was loaded onto anti-mouse capture (AMC) Octet biosensors.”, “The KD value and other kinetics parameters were determined by the values of Req for each analyte concentration (Table 1).” left out

[5] = molecular target: T5, human Prostate-Specific Membrane Antigen (PSMA) expressed on cells (human, UniProt Q04609 1-750); experiment: flow cytometry, 8-point serial dilution on HEK293T-PSMA cells, anti-mouse IgG2a-PE secondary, gMFI
T5 construct: also called FOLH1; HEK293T-PSMA
Experimental: as §1, with “PSMA expressing HEK293T cell lines were used to assess the binding” for “Binding”, “antibodies” for “CA9 1-mIgG2a and CA9 2-mIgG2a”, “to” for “to CA9 was assessed by”, “surface expressed PSMA.” for “binding dose curves on parental HEK293T cells and HEK293T-CA9 expressing cell lines.”, “HEK293T-PSMA” for “HEK293T-CA9”
(§3) There was no binding to parental HEK293T cells.

recombinant human PSMA = molecular target: T6, recombinant human PSMA (human, UniProt Q04609 44-750); experiment: BLI (Octet R8), antibody on anti-mouse capture biosensors, recombinant human PSMA as analyte
T6 construct: Soluble recombinant antigen used as analyte on the Octet
Experimental: as §2, with “recombinant” for “recombinant CA9”, “PSMA” for “CA9”, “R8 instrument.” for “R8.”, “2).” for “1).”

[6] = molecular target: T7, mouse PSMA expressed on HEK293T cells (mouse, UniProt O35409 1-752); experiment: flow cytometry histograms on HEK293T-mPSMA cells (panel B, left), axis PSMA 1 ab MFI
T7 construct: whole, on cells; also called HEK293T-mPSMA; mPSMA
Experimental: Cross-reactivity of PSMA 1 to mouse PSMA was evaluated using flow cytometry. In brief, HEK293T cells expressing mouse PSMA (HEK293T-mPSMA) were stained for 30 min on ice with increasing concentrations of PSMA 1-mIgG2a. Target cells were also stained with positive control antibodies to confirm expression of mouse PSMA on the engineered HEK293T cells. Following primary staining, the cells were washed, stained with secondary antibody, and subsequently analyzed by flow cytometry. Data were analyzed using FlowJo.

recombinant mouse CA9 = molecular target: T8, recombinant mouse CA9 (mouse, UniProt Q8VHB5 32-390, limits assumed); experiment: BLI (Octet R8), antibody on anti-mouse capture biosensors, recombinant antigen as analyte
T8 construct: also called mouse homolog of CA9
Experimental: as §2
as §2, with “recombinant” for “recombinant CA9”, “PSMA” for “CA9”, “R8 instrument. […]” for “R8. Briefly, recombinant antibody was loaded onto anti-mouse capture (AMC) Octet biosensors.”, “The KD value and other kinetics parameters were determined by the values of Req for each analyte concentration (Table 1).” left out

recombinant human CA9 = recombinant human CA9 (human, UniProt Q16790 38-414); experiment: BLI (Octet R8), antibody on anti-mouse capture biosensors, recombinant human CA9 as analyte
Experimental: as §2

[7] = molecular target: T9, mouse CA9 expressed on HEK293T cells (mouse, UniProt Q8VHB5 32-437); experiment: flow cytometry histograms on HEK293T-mCA9 cells (panel B, left), axis CA9 1 ab MFI
T9 construct: whole, on cells; also called HEK293T-mCA9; mCA9
Excerpt: To assess cross-reactivity of CA9 1 to mouse CA9 and further confirm the binding kinetics to human CA9, HEK293T-mCA9 cells were stained with increasing concentrations of CA9 1-mIgG2a then analyzed by flow cytometry. Recombinant CA9 1-mIgG2a protein was titrated against parental and engineered HEK293T cell lines expressing mouse CA9. Target cells were also stained with positive control antibodies to confirm expression of mouse CA9 on the engineered HEK293T cells. Following primary staining, the cells were washed, stained with secondary antibody, and subsequently analyzed by flow cytometry. Data were analyzed using FlowJo. Target cells were also stained using an anti-mouse CA9 positive control antibody to confirm expression of mouse CA9 on the HEK293T-mCA9 cells.

[8] = molecular target: T3, human Carbonic Anhydrase IX (CA9) …; experiment: flow cytometry, 8-point serial dilution on HEK293T-CA9 cells, anti-mouse IgG2a-PE secondary, gMFI
Experimental: as §1, §3

[9] = molecular target: T5, human Prostate-Specific Membrane …; experiment: flow cytometry dose curves on HEK293T-PSMA against parental cells (data not shown)
Experimental: as §1, with “PSMA expressing HEK293T cell lines were used to assess the binding” for “Binding”, “antibodies” for “CA9 1-mIgG2a and CA9 2-mIgG2a”, “to” for “to CA9 was assessed by”, “surface expressed PSMA.” for “binding dose curves on parental HEK293T cells and HEK293T-CA9 expressing cell lines.”, “HEK293T-PSMA” for “HEK293T-CA9”
Binding of PSMA 1-mIgG2a or PSMA 2-mIgG2a to PSMA was assessed by cell binding dose curves on parental HEK293T cells and HEK293T-PSMA expressing cell lines. […] (data not shown)

T6 sequence (Q04609 44-750 limits assumed): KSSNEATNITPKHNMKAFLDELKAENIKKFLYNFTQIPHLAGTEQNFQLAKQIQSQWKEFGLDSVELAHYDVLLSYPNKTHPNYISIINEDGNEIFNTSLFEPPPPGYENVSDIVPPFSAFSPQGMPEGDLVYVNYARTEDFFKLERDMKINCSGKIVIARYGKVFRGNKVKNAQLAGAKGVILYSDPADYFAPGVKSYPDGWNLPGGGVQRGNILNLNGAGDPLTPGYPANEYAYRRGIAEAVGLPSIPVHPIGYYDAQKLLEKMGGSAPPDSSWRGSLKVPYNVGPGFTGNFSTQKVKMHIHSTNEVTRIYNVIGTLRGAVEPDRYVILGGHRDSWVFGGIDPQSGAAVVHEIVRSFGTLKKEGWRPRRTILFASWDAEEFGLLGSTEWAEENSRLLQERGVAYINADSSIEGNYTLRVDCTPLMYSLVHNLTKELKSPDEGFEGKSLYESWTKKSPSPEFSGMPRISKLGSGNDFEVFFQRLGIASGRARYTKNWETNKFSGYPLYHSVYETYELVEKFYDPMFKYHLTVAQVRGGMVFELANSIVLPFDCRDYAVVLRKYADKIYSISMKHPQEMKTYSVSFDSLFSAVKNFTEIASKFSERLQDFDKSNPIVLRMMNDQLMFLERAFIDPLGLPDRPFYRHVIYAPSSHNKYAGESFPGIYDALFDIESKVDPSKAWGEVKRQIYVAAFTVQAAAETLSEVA
T5 sequence (Q04609 whole entry): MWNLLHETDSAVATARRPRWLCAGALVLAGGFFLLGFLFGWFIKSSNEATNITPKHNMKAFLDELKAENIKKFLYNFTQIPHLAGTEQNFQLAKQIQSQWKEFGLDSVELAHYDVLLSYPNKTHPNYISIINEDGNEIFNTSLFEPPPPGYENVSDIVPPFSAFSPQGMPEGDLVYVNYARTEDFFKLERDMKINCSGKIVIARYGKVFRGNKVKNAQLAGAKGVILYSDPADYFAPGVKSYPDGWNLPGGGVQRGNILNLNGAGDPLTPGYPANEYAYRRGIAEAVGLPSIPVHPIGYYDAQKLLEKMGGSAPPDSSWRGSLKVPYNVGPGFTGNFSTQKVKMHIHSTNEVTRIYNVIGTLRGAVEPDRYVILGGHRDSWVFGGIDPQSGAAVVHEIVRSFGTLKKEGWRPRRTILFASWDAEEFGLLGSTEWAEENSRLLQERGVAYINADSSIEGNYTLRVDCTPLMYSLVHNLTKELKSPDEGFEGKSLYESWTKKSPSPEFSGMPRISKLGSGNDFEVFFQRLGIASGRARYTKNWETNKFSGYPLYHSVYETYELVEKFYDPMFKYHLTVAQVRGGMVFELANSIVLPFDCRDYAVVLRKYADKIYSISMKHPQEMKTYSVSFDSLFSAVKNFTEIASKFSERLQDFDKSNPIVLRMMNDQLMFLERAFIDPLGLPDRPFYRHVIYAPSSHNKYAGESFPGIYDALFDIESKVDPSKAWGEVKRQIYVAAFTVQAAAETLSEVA
T8 sequence (Q8VHB5 32-390 limits assumed): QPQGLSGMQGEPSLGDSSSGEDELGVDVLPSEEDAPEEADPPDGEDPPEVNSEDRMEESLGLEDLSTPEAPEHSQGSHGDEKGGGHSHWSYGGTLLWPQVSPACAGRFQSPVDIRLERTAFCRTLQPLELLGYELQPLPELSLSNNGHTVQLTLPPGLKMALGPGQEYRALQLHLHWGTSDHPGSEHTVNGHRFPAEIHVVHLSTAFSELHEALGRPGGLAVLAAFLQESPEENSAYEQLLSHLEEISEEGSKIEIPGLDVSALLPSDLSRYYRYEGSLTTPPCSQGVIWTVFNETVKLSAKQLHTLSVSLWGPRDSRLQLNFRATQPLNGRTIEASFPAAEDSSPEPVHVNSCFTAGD
T9 sequence (Q8VHB5 32-437): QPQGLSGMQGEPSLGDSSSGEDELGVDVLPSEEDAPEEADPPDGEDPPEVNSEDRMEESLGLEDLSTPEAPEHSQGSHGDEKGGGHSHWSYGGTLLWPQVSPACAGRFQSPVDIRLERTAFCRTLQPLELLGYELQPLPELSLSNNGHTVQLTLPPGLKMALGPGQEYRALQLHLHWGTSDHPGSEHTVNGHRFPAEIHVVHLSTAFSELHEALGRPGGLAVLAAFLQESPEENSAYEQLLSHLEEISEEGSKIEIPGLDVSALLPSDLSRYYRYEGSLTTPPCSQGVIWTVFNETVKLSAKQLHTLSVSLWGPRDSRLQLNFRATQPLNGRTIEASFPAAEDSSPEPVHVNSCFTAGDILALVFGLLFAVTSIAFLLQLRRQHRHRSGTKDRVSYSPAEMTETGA
T4 sequence (O35409 45-752 limits assumed): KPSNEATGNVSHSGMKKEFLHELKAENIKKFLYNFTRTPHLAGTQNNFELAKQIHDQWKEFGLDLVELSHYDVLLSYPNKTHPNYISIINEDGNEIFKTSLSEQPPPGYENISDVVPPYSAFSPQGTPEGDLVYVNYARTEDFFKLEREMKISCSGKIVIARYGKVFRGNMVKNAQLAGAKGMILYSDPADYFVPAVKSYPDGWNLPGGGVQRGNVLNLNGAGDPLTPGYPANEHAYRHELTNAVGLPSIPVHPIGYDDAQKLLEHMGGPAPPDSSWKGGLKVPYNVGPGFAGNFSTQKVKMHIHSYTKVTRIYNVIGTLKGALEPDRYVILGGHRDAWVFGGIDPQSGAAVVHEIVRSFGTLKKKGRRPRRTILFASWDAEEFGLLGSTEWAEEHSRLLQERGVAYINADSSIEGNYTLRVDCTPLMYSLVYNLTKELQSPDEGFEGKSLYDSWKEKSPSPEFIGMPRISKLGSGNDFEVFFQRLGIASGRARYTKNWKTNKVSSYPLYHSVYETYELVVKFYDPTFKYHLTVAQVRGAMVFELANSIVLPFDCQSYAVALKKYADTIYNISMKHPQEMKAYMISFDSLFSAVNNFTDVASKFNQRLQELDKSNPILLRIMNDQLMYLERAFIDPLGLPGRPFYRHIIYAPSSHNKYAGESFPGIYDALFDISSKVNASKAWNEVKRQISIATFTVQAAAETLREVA
T7 sequence (O35409 whole entry): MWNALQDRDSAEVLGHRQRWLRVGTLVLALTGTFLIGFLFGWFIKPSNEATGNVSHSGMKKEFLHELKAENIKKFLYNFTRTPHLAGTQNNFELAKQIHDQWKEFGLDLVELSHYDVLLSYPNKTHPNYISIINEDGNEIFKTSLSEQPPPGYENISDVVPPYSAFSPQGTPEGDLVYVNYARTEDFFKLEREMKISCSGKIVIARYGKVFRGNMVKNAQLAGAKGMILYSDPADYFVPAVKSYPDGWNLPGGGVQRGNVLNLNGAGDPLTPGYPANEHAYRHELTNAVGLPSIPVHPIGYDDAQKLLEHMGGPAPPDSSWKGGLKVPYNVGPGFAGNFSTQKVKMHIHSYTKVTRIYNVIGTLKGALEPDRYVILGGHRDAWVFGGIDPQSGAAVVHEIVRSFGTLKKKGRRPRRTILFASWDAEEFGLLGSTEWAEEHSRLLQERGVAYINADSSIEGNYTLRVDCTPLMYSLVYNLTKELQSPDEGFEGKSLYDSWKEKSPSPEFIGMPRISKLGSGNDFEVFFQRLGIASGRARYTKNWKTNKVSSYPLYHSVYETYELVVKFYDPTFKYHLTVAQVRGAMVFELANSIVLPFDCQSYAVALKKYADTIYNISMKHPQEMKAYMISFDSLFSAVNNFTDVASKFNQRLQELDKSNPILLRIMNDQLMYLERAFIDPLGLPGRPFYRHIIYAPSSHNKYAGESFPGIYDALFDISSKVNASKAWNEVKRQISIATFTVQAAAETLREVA

B1: CA9 2 scFv (as printed; CA9 2 is a VH-only single domain) (VHH)
VHH: EVQLVESGGGLVQPGGSLRLSCAASGFSFSDYSGMSWVRQAPGKGEELVSAISPGGGDTYYADSVKGRFTISRDNSKNTLYLQMNSLRAEDTAVYYCARRWWYYSNHSGDYDYFDYRGQGTLVTVSS
notes: It was detected with a secondary 'mouse anti human IgG2' stain
binding result [1]: binds | binding result [2]: binds | binding result [3]: binds

B3: PSMA 1-mIgG2a (antibody, V domains shown)
VH: QVQLVQSGPEVKKPGASVKVSCKASGYTFTSYGITWVRQAPGQGLEWMGWISEYNGNTNYAQKFQGRVTMTIDTSTTTAYMELRSLRSDDTAVYFCARGGILPYYFFYYMDVWGKGTTVTVSS
VL: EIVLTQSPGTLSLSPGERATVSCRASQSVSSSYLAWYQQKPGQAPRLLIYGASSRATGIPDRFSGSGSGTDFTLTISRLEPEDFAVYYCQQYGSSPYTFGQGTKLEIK
notes: Fully human VH and VL cloned into vectors with mouse IgG2a constant domains (chimeric, expressed in CHO); also called PSMA 1 antigen biding fragment
binding result (recombinant mouse PSMA): no binding | EC50 [5]: 1.86 nM | Kd (recombinant human PSMA): 0.3 nM | koff (recombinant human PSMA): 1.89e-05 s⁻¹ | kon (recombinant human PSMA): 63300 M⁻¹ s⁻¹ | binding result [6]: no binding (tested: 30 µg/mL)

B4: CA9 1-mIgG2a (antibody, V domains shown)
VH: QVQLVQSGAEVKKPGASVKVSCKASGYTFTSYYMHWVRQAPGQGLEWMGIINPSRGSASYAQKFQGRVTMARDTSTSTVYMELSSLRSEDTAVYYCARDRNYYYYMDVWGKGTTVTVSS
VL: EIVMTQSPATLSVSPGERATLSCRASQNISSNLAWYQQKPGQAPRLLIYGASTRATDIPARFSGSGSGTEFTLTISSLQSEDFAVYYCQQYITWYTFGQGTKLEIK
notes: Fully human VH and VL cloned into mammalian expression vectors with mouse IgG2a constant domains (chimeric antibody, expressed in CHO); also called CA9 1 antigen biding fragment
binding result (recombinant mouse CA9): no binding | Kd (recombinant human CA9): 0.15 nM | koff (recombinant human CA9): 4.9e-05 s⁻¹ | kon (recombinant human CA9): 325000 M⁻¹ s⁻¹ | binding result [7]: no binding (tested: 30 µg/mL) | EC50 [8]: 0.92 nM

B5: PSMA 2-mIgG2a (antibody, V domains shown)
VH: QVQLVQSGAEVKKPGASVKVSCKASGYTFSSYGVSWVRQAPGQGLEWMGWISKYNGNTNYAQKFQGRVTMTTDTSTSTAYMELRSLRSDDTAVYFCARGGIHGDSYYFYYLDVWGKGTTVTVSS
VL: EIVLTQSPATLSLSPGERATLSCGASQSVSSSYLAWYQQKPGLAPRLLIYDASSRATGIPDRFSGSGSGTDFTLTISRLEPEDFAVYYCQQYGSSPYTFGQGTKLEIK
notes: Fully human VH and VL cloned into vectors with mouse IgG2a constant domains (chimeric, expressed in CHO)
binding result [9]: binds

Now from value to binder:

binding result [4]: binds
B2: CA9 2-mIgG2a (antibody, V domains shown)
VH: B1 VHH

binding result [1]: binds | binding result [2]: binds | binding result [3]: binds
B6: CA9 1 scFv (scFv)
scFv: QVQLVQSGAEVKKPGASVKVSCKASGYTFTSYYMHWVRQAPGQGLEWMGIINPSRGSASYAQKFQGRVTMARDTSTSTVYMELSSLRSEDTAVYYCARDRNYYYYMDVWGKGTTVTVSSGGGGSGGGGSGGGGSEIVMTQSPATLSVSPGERATLSCRASQNISSNLAWYQQKPGQAPRLLIYGASTRATDIPARFSGSGSGTEFTLTISSLQSEDFAVYYCQQYITWYTFGQGTKLEIK
notes: Used to stain the CA9 isoform cell lines; It was detected with a secondary 'mouse anti human IgG2' stain
